B1: Nuclear receptor subfamily 5 group A member 2 (Homo sapiens), O00482-2 (parent)
chain: MSSNSDTGDLQESLKHGLTPIVSQFKMVNYSYDEDLEELCPVCGDKVSGYHYGLLTCESCKGFFKRTVQNNKRYTCIENQNCQIDKTQRKRCPYCRFQKCLSVGMKLEAVRADRMRGGRNKFGPMYKRDRALKQQKKALIRANGLKLEAMSQVIQAMPSDLTISSAIQNIHSASKGLPLNHAALPPTDYDRSPFVTSPISMTMPPHGSLQGYQTYGHFPSRAIKSEYPDPYTSSPESIMGYSYMDSYQTSSPASIPHLILELLKCEPDEPQVQAKIMAYLQQEQANRSKHEKLSTFGLMCKMADQTLFSIVEWARSSIFFRELKVDDQMKLLQNCWSELLILDHIYRQVVHGKEGSIFLVTGQQVDYSIIASQAGATLNNLMSHAQELVAKLRSLQFDQREFVCLKFLVLFSLDVKNLENFQLVEGVQEQVNAALLDYTMCNYPQQTEKFGQLLLRLPEIRAISMQAEEYLYYKHLNGDVPYNNLLIEMLHAKRA
B2: Prospero homeobox protein 1 (Homo sapiens), Q92786 (parent)
chain: MPDHDSTALLSRQTKRRRVDIGVKRTVGTASAFFAKARATFFSAMNPQGSEQDVEYSVVQHADGEKSNVLRKLLKRANSYEDAMMPFPGATIISQLLKNNMNKNGGTEPSFQASGLSSTGSEVHQEDICSNSSRDSPPECLSPFGRPTMSQFDMDRLCDEHLRAKRARVENIIRGMSHSPSVALRGNENEREMAPQSVSPRESYRENKRKQKLPQQQQQSFQQLVSARKEQKREERRQLKQQLEDMQKQLRQLQEKFYQIYDSTDSENDEDGNLSEDSMRSEILDARAQDSVGRSDNEMCELDPGQFIDRARALIREQEMAENKPKREGNNKERDHGPNSLQPEGKHLAETLKQELNTAMSQVVDTVVKVFSAKPSRQVPQVFPPLQIPQARFAVNGENHNFHTANQRLQCFGDVIIPNPLDTFGNVQMASSTDQTEALPLVVRKNSSDQSASGPAAGGHHQPLHQSPLSATTGFTTSTFRHPFPLPLMAYPFQSPLGAPSGSFSGKDRASPESLDLTRDTTSLRTKMSSHHLSHHPCSPAHPPSTAEGLSLSLIKSECGDLQDMSEISPYSGSAMQEGLSPNHLKKAKLMFFYTRYPSSNMLKTYFSDVKFNRCITSQLIKWFSNFREFYYIQMEKYARQAINDGVTSTEELSITRDCELYRALNMHYNKANDFEVPERFLEVAQITLREFFNAIIAGKDVDPSWKKAIYKVICKLDSEVPEIFKSPNCLQELLHE

Variants of: B1
Conditions: with prox1_human PROX1, Q92786

effect of a mutation on the interaction | Variant
disrupting interaction | L453A;L454A
disrupting interaction | Q273A;Q281A;Q282A
decreasing interaction | K301A;Q305A;F308A
decreasing interaction | D326A;D327A;M329A

Variants of: B2
Conditions: with NR5A2, O00482-2

effect of a mutation on the interaction | Variant
disrupting interaction | L70A;L73A

— IntAct's records for PubMed 15205472
